The source of these data is paper PMC5603541.

The data set relates to BoHV-1 whole virus (purified virion) (Bovine herpesvirus 1 (BK1952, CVCC; Methods also says field isolate from China)). The data set can be described thus: ELONA.

Take “GCTGCAATACTCATGGACAGGGCGGCGGGGTGGGGTGGGCGGTTTGATTCCCATGGGTGCGTCTGGAGTACGACCCTGAA [IBRV-A4]”: the dissociation constant (Kd) (usually the equilibrium constant for the complex coming apart) amounted to 3.52 nM.
